# In the DeepSol protein solubility set:
# Test: soluble on expression in E. coli; label from the status in PepcDB or PDB records
row,Sequence,soluble on expression in E. coli
1,MASMPSRTALSPGVLSPTRPVPNWIARPEYVGKPAAQEGSEPWVQTPEVIEKMRVAGRIAAGALAEAGKAVAPGVTTDELDRIAHEYLVDNGAYPSTLGYKGFPKSCCTSLNEVICHGIPDSTVITDGDIVNIDVTAYIGGVHGDTNATFPAGDVADEHRLLVDRTREATMRAINTVKPGRALSVIGRVIESYANRFGYNVVRDFTGHGIGTTFHNGLVVLHYDQPAVETIMQPGMTFTIEPMINLGALDYEIWDDGWTVVTKDRKWTAQFEHTLLVTDTGVEILTCL,soluble
2,GMFADNTLTPKEAVRLCALGTIASQPMRYSELAGSVRHFTSRIMGPSLELMGISIELLRYEGLVEAVDDGQGMEDDAMLAISAAGRRELHSLLTARLRPGSDLSKLVVALKMRFLGLMEAEERAHQIDLLIEGVDSELARLADLRGSDGEGGSALAAWLDHDMALLESRLAWLEDFRARL,soluble
3,MELKTSDVAARLGVSPKTIQRWVRKYDIPLRRNEAGHYLFDEKTVALLERVKFEQGAAMEAPPTPKRPPTPLRNNIPIDALHESIEPEIARVSSRLDQLERQLEQKADDVVSIQLLHHRQEMEEIVARLTALEQLVARLEQQLNTRPPAPHEPPEETKQKRRGLGRVMGLFA,not soluble
4,MKVLKPGLLTTVQDIGRTGYQKYGVLASGAMDTVSLRIANLLIGNGENEAGLEITMMGPGPSFHFSKQTLIAVTGADFTLRINDEEAPLWKPVLIKENSTVSFGPCKLGSRAYLAAAGGIEVPAVMESKSTYVRGSIGGLHGRALQKEDELNIGEMSALSQTILSRLSSQLAHTVIGSTDVVSQPWEISVIEDESRHSSAGGISICLLHSRIKNAFSEEAFRVTPQSDRMGYRLKGEPLDLTAPLEMVSAAVSFGAAQMPPAGKPYYPCLQDRQDDWPAIRGIAHIISADLPIVSQIMPGEHVQFEPVSLQEAEALAVEREQHIKELKTRMKMEWLT,not soluble
5,GMKAADFTYVTVHGDNSRMSRLKAQYTMLFFYDPDCSNCRKFEKLFAEIPAFVEMVENGTLRVLAIYPDENREEWATKAVYMPQGWIVGWNKAGDIRTRQLYDIRATPTIYLLDGRKRVILKDTSMEQLIDYLATQAG,not soluble
6,MSLSTIDLHVHSNYSDGIHPPADLVKMAAERGLVAIAIADHDTVDGIDEALIAGARLGVEVVPAVELSAEHGRYRDMHILGYHLDHRDPRLVDMLAEFRINREIRGRAIVDKINQRLADGRKPLLSYDEVLNLAEGAVGRPHIGRMLIERGYARNMEDAFRRYLIPCNVPKRYIPAGDAITEIRRAGGVAVLAHPITVSDDRQVLRGIVSELVALGLDGIEVFNNMCYKDDMLFLEFLCRESGLLMTGGSDFHGFEDDVEIGSGREGHHHHHH,not soluble
7,MSLKITSIETIPIKVPIKPEFAIRSGRGGSHVVSPFLLVKVHTDAGITGLGEVSCTPRWSGEDQVSAAHFIKTYLAPLLEGEDPRQIESLTAKFRLGVAGNFFTKSGIEMALWDIAGKAAGKPVYELLGGTVREFIPTKWSVSGQEPDKAADIARWAVAQGFKAMKVKVGIEPDKDVARVAAVRAAIGSQIKLGVDANGGWSREVAASTIERLYASSIYFAEQPIPPEDLLYLPELRKQLKVPIIADESIYSLQDAMTLAHLQAADVFSIYVGKAGGIGPARKIAQFAESVGLKCTVGSNLELGIGSAAMIHLAIATHAIDAESYPCDIIGPMFYEDDMLVEPLPIVAGKAQPNSKPGLGVELNEKTVEKYRVCEGHHHHHH,soluble
8,MRPVLLLCCLFLSATAQAEDCSPQTSVGSWCELPLAALHPTQQNVGLLQVEDDQAKLAGKKPKALERYLRKKEIPVVIGPGGRFYLTDRHHLSSALWRLDPKQGVPVKVIGRLPQASDFWEKMQENHWVWLHDARGAEIPPEALPDALAGLGDDPYRALAGYAEDENAFDKDRQSYFIEFHWARYFGERMHWRPISRATLPDDLKQALRLACEPAARELPGYRQDCPHKLAAALEHHHHHH,not soluble
